13 sequences from the supplement of paper PMC9170038 can be followed below.

This data set has as its system MS2 coat protein. Kind of data set: apparent KD of MS2 coat protein; designed switch direction (-1 OFF switch, 1 ON switch): -1; higher = weaker reporter binding. Summed up: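 The apparent KD reported per design is the median over clusters of curve fits to normalised cluster fluorescence. The RNA switches were transcribed on Illumina chips by stalled E. coli RNA polymerase. SNAP-549-labelled MS2 coat protein was titrated from 0.7 or 1.5 nM, doubling up to 3 µM, in Tris-HCl pH 7.5 buffer containing KCl, MgCl2, BSA, DTT, tRNA and Tween-20, with no input, 200 uM small-molecule ligand, or an oligonucleotide input.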

Where [1] appears, read: Eterna round: R95, input ligand: microRNA oligo, concentration not stated.
[2] abbreviates: Eterna round: R95, input ligand: FMN 200 uM.
The mark [3] stands for this setting: Eterna round: R95, input ligand: none.

As to “UAAAACGUAGGAUAUGCGGAAAAUAACUUGAGGAUCACCCAAGUGUCCGAGAGGCUAAAUGCAGAAGGACGAGAUC [Edxedi] (Eterna round: R97, puzzle: Exclusion 5)”, the “apparent KD of MS2 coat protein” value reads like this: (input ligand: FMN 200 uM) 179 nM; (input ligand: none) 105 nM.

Consider “UAAAAGACAGGAUAUACUAACAACGACUUGAGGAUCACCCAAGUGGUAAGAGUCGAUCAUGUAGAAGGGUUAAAAC [Atsoce] (Eterna round: R97, puzzle: Exclusion 5)”, for which the “apparent KD of MS2 coat protein” value reads like this: (input ligand: FMN 200 uM) 74.3 nM; (input ligand: none) 28 nM.

As to “UAAAAGCGAGGAUAUACAAACAGGUCCAAAACAUGUCUUGGACAUGAGGAUCACCCAUGUAGAAGGCGUAAAAG [Anleain] (Eterna round: R97, puzzle: Exclusion 2)”, the “apparent KD of MS2 coat protein” value stood at 558 nM (input ligand: FMN 200 uM) and 90.6 nM (input ligand: none).

Take “UAAAAGCUAGGAUAUACAUGAGGAUCACCCAUGUAAUCUCUCACUUACACGGAGGAUCGUAGAAGGAGCACAAA [Inlaveti] (puzzle: Exclusion 3)”: the “apparent KD of MS2 coat protein” value under setting [1] stood at 20.3 nM.

“UAAAAGGGAGGAUAUACUUGAGGAUCACCCAAGUGAUCCAGACCCUGAACGGUCUAUAGUAGAAGGCCCAAUAA [Teinma] (Eterna round: R97, puzzle: Exclusion 3)”: the “apparent KD of MS2 coat protein” value is 152 nM (input ligand: FMN 200 uM) and 58 nM (input ligand: none).

With “UAAAAUAGUGUGAGGAUAUGCUGGUCCUUGGAUCAGCAGAAGGCACAUGAGGAUCACCCAUGUAGAUAAUAAUA [Mat - Exclusion 4 - JL Mod - D26] (puzzle: Brourd's mod of Exclusion 4)”, the “apparent KD of MS2 coat protein” value under setting [2] worked out at 189 nM, the “apparent KD of MS2 coat protein” value under setting [1] stood at 49.6 nM and the “apparent KD of MS2 coat protein” value under setting [3] amounted to 78 nM.

In the case of “UAAAGUAUAUAGGAUAUCUAGCUGGAAACAGCUAGAGAAGGAUGUACAUGAGGAUCACCCAUGUAAAACCUCAA [Ex6/17-A1] (Eterna round: R97, puzzle: Exclusion 6)”, the “apparent KD of MS2 coat protein” value was 45.4 nM (input ligand: FMN 200 uM) and 18.3 nM (input ligand: none).

For the sequence “UAAAGUAUAUAGGAUAUCUAGCUGGAUACAGCUAGAGAAGGAUGUACAUGAGGAUCACCCAUGUAGAUCUCAAA [Ex6/15-A1] (Eterna round: R97, puzzle: Exclusion 6)”, the “apparent KD of MS2 coat protein” value (input ligand: FMN 200 uM) stood at 17.4 nM and the “apparent KD of MS2 coat protein” value (input ligand: none) was 14.8 nM.

Consider “UAAAUUAUAGUAAGGAUAUCAGUCGCGAAAGUGGCUGAGAAGGUACAUGAGGAUCACCCAUGUGAAAUAAGAAU [Mod of Zala 17 - Jieux - Brourd's Mod of Exclusion 4] (Eterna round: R97, puzzle: Brourd's mod of Exclusion 4)”, for which the “apparent KD of MS2 coat protein” value runs as follows: (input ligand: FMN 200 uM) 25.7 nM; (input ligand: none) 20 nM.

Take “UAACAGUAAGGAUAUCCAGAUCCAGACAUGAGGAUCACCCAUGUCAUAUACCUUUGACACGGAGAAGGUACGAAAA [EX5 A.4] (Eterna round: R97, puzzle: Exclusion 5)”: the “apparent KD of MS2 coat protein” value (input ligand: FMN 200 uM) is 52.3 nM and the “apparent KD of MS2 coat protein” value (input ligand: none) came out at 52.2 nM.

“UAACAUGUCUGAGGAUAUCUGCACGAUUAGUGCAGAGAAGGCAGAACAUGAGGAUCACCCAUGUAGAUCAUUAAUUAAUUAAUU [ENG1/7-B1] (Eterna round: R96, puzzle: Exclusion NG 1)”: the “apparent KD of MS2 coat protein” value came out at 712 nM (input ligand: FMN 200 uM); 288 nM (input ligand: microRNA oligo, concentration not stated); 344 nM (input ligand: none).

Take “UAACCUAUUGUCAGGAUAUCUACGUGGUAUCAUGAGGAGAAGGGACAUGAGGAUCACCCAUGUGGAAGGGAAAA [Beques] (puzzle: Brourd's mod of Exclusion 4)”: the “apparent KD of MS2 coat protein” value under setting [2] worked out at 60.2 nM, the “apparent KD of MS2 coat protein” value under setting [1] stood at 31.1 nM and the “apparent KD of MS2 coat protein” value under setting [3] came out at 48.3 nM.

Regarding “UAAGAGUGAGGAUAUACGUCGCUGGCCCGGAUGGACGCAUGACAUGAGGAUCACCCAUGUAGAAGGCACAAAAC [Enxela Mod 14 - Jieux - Exclusion 2] (Eterna round: R97, puzzle: Exclusion 2)”, the “apparent KD of MS2 coat protein” value amounted to 34.7 nM (input ligand: FMN 200 uM) and 29.7 nM (input ligand: none).
